{
  "source": "paper PMC3708604",
  "about": "(Methods in molecular biology (Clifton, N.J.), 2013)",
  "binders": {"B1": {"name": "SRC1 NR Box 2 peptide (peptide)", "peptide": "LTERHKILHRLLQE"}, "B2": {"name": "Full-length FLAG-epitope-tagged human ERα (receptor, UniProt P03372 1-595, looked up)", "chain": "MTMTLHTKASGMALLHQIQGNELEPLNRPQLKIPLERPLGEVYLDSSKPAVYNYPEGAAYEFNAAAAANAQVYGQTGLPYGPGSEAAAFGSNGLGGFPPLNSVSPSPLMLLHPPPQLSPFLQPHGQQVPYYLENEPSGYTVREAGPPAFYRPNSDNRRQGGRERLASTNDKGSMAMESAKETRYCAVCNDYASGYHYGVWSCEGCKAFFKRSIQGHNDYMCPATNQCTIDKNRRKSCQACRLRKCYEVGMMKGGIRKDRRGGRMLKHKRQRDDGEGRGEVGSAGDMRAANLWPSPLMIKRSKKNSLALSLTADQMVSALLDAEPPILYSEYDPTRPFSEASMMGLLTNLADRELVHMINWAKRVPGFVDLTLHDQVHLLECAWLEILMIGLVWRSMEHPGKLLFAPNLLLDRNQGKCVEGMVEIFDMLLATSSRFRMMNLQGEEFVCLKSIILLNSGVYTFLSSTLKSLEEKDHIHRVLDKITDTLIHLMAKAGLTLQQQHQRLAQLLLILSHIRHMSNKGMEHLYSMKCKNVVPLYDLLLEMLDAHRLHAPTSRGGASVEETDQSHLATAGSTSSHSLQKYYITGEAEGFPATV"}, "B3": {"name": "SRC1 NR Box 4 peptide (peptide)", "peptide": "QAQQKSLLQQLLTE"}, "B4": {"name": "FLAG-epitope-tagged human ERβ (receptor, UniProt Q92731 1-530, looked up)", "chain": "MDIKNSPSSLNSPSSYNCSQSILPLEHGSIYIPSSYVDSHHEYPAMTFYSPAVMNYSIPSNVTNLEGGPGRQTTSPNVLWPTPGHLSPLVVHRQLSHLYAEPQKSPWCEARSLEHTLPVNRETLKRKVSGNRCASPVTGPGSKRDAHFCAVCSDYASGYHYGVWSCEGCKAFFKRSIQGHNDYICPATNQCTIDKNRRKSCQACRLRKCYEVGMVKCGSRRERCGYRLVRRQRSADEQLHCAGKAKRSGGHAPRVRELLLDALSPEQLVLTLLEAEPPHVLISRPSAPFTEASMMMSLTKLADKELVHMISWAKKIPGFVELSLFDQVRLLESCWMEVLMMGLMWRSIDHPGKLIFAPDLVLDRDEGKCVEGILEIFDMLLATTSRFRELKLQHKEYLCVKAMILLNSSMYPLVTATQDADSSRKLAHLLNAVTDALVWVIAKSGISSQQQSMRLANLLMLLSHVRHASNKGMEHLLNMKCKNVVPVYDLLLEMLNAHVLRGCKSSITGSECSPAEDSKSKEGSQNPQSQ"}},
  "key": {"[1]": {"molecular_target": "B2", "experiment": "fluorescence polarisation"}, "[2]": {"molecular_target": "Full-length FLAG-epitope-tagged human SRC1a (human, UniProt Q15788-1 1-1441)", "sequence (Q15788 whole entry)": "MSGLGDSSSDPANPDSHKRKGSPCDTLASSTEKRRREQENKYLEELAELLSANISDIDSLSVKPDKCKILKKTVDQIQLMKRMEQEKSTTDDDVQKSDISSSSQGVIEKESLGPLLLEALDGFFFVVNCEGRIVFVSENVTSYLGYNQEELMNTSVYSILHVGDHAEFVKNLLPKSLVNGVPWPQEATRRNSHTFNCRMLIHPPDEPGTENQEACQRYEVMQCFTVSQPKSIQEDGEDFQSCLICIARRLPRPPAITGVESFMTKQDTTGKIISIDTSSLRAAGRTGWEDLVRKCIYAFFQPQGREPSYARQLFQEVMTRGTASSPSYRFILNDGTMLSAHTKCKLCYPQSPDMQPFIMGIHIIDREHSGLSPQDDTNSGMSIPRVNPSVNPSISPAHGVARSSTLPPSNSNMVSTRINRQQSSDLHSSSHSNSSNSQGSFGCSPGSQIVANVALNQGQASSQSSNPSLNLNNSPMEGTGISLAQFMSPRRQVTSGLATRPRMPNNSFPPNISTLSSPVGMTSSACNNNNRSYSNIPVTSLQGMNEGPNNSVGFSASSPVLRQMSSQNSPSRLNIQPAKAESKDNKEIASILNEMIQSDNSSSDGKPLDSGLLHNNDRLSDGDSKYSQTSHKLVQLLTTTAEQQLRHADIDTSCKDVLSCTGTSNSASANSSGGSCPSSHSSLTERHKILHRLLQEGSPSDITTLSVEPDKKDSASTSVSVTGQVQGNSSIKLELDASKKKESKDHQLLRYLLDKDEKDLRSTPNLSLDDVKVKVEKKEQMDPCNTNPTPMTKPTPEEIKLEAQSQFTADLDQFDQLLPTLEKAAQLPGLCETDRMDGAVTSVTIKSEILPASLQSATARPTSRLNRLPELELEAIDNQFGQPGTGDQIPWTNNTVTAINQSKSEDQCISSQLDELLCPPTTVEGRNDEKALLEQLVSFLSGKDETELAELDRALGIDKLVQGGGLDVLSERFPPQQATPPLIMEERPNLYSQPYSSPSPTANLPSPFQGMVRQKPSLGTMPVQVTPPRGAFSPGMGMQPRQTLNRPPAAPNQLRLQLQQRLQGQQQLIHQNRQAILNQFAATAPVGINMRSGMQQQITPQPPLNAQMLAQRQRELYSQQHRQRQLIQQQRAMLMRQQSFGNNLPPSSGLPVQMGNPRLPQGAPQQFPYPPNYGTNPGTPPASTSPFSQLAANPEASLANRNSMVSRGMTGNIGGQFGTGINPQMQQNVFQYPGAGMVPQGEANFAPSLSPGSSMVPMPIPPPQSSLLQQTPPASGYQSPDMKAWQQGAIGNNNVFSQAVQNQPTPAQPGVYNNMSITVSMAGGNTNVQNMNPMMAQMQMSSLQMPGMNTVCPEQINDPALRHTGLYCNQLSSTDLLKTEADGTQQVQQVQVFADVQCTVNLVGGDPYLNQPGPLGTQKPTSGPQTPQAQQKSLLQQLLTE", "experiment": "fluorescence polarisation"}},
  "data": [
    {"binder": "B1", "values": [
      {"measurement": "IC50", "setting": "[1]", "result": "~1000", "unit": "nM"}
    ]},
    {"binder": "B2", "values": [
      {"measurement": "Kd", "setting": "[2]", "result": "~14", "unit": "nM"}
    ]},
    {"binder": "B3", "values": [
      {"measurement": "IC50", "setting": "[1]", "result": "~3800", "unit": "nM"}
    ]},
    {"binder": "B4", "values": [
      {"measurement": "Kd", "setting": "[2]", "result": "~6", "unit": "nM"}
    ]}
  ]
}
